Data from US20030068675, “Position dependent recognition of GNN nucleotide triplets by zinc fingers” (published 2003).

Tests used:
Test in all cases: EMSA
Conditions in all cases: tags: MBP fusion
[1] = molecular target: T1, ZFP SBS#1027 (synthetic, UniProt P08047)
T1 chain: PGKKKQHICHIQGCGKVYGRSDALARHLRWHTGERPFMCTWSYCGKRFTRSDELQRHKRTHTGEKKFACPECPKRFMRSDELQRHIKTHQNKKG
Procedure, shortened: (§1)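 Purified ZFP was titrated against labeled double-stranded target (1 nM or lower, at least 10-fold below expected Kd) carrying the natural binding site with flanks. Binding buffer was 10 mM Tris pH 7.5, 100 mM KCl, 1 mM MgCl2, 0.1 mM ZnCl2, 5 mM DTT, 10% glycerol, 0.02% BSA, with equilibration for at least 45 min. Bound and free target were separated on a 10% polyacrylamide gel.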

[2] = molecular target: ZFP SBS#964 (synthetic)
Procedure, shortened: as §1

[3] = molecular target: ZFP SBS#986 (synthetic)
Procedure, shortened: as §1

[4] = molecular target: ZFP SBS#988 (synthetic)
Procedure, shortened: as §1

[5] = molecular target: ZFP SBS#1032 (synthetic)
Procedure, shortened: as §1

[6] = molecular target: ZFP SBS#987 (synthetic)
Procedure, shortened: as §1

[7] = molecular target: ZFP SBS#995 (synthetic, UniProt P08047)
Procedure, shortened: as §1

[8] = molecular target: T2, ZFP SBS#1024 (synthetic, UniProt P08047)
T2 chain: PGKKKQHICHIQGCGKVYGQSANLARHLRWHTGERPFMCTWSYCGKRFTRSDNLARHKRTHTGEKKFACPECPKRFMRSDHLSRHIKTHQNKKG
Procedure, shortened: as §1

[9] = molecular target: T3, ZFP SBS#1016 (synthetic)
T3 chain: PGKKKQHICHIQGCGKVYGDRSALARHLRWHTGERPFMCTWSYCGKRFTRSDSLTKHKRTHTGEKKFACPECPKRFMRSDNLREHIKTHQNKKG
Procedure, shortened: as §1

[10] = molecular target: T4, ZFP SBS#996 (synthetic)
T4 chain: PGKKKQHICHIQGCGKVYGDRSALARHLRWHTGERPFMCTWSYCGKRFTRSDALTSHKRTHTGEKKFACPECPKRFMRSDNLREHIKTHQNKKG
Procedure, shortened: as §1

[11] = molecular target: T5, ZFP SBS#1000 (synthetic)
T5 chain: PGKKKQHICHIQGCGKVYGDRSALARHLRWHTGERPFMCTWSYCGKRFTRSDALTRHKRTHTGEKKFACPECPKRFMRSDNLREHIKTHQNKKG
Procedure, shortened: as §1

[12] = molecular target: T6, ZFP SBS#1002 (synthetic)
T6 chain: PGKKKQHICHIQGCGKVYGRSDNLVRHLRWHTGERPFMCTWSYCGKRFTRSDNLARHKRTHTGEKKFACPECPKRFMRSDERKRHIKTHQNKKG
Procedure, shortened: as §1

[13] = molecular target: ZFP SBS#1015 (synthetic)
Procedure, shortened: as §1

[14] = molecular target: ZFP SBS#1007 (synthetic)
Procedure, shortened: as §1

[15] = molecular target: ZFP SBS#1010 (synthetic)
Procedure, shortened: as §1

[16] = molecular target: ZFP SBS#1013 (synthetic)
Procedure, shortened: as §1

[17] = molecular target: T7, ZFP SBS#1008 (synthetic)
T7 chain: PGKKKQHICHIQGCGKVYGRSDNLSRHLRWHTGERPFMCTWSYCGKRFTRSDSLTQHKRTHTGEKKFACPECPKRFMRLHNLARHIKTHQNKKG
Procedure, shortened: as §1

[18] = molecular target: T8, ZFP SBS#1009 (synthetic)
T8 chain: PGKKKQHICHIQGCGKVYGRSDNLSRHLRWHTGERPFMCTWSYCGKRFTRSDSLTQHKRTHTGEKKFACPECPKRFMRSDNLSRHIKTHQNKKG
Procedure, shortened: as §1

[19] = molecular target: T9, ZFP SBS#1011 (synthetic)
T9 chain: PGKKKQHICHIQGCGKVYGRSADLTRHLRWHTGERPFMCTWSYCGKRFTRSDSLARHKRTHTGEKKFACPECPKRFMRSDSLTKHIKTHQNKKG
Procedure, shortened: as §1

[20] = molecular target: ZFP SBS#1012 (synthetic)
Procedure, shortened: as §1

[21] = molecular target: ZFP SBS#1014 (synthetic)
Procedure, shortened: as §1

[22] = molecular target: T10, ZFP SBS#1017 (synthetic)
T10 chain: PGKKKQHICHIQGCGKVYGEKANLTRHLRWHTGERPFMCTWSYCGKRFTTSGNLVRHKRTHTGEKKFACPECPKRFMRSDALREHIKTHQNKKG
Procedure, shortened: as §1

[23] = molecular target: ZFP SBS#1018 (synthetic)
Procedure, shortened: as §1

[24] = molecular target: ZFP SBS#1019 (synthetic)
Procedure, shortened: as §1

[25] = molecular target: ZFP SBS#1025 (synthetic)
Procedure, shortened: as §1

[26] = molecular target: T11, ZFP SBS#1022 (synthetic)
T11 chain: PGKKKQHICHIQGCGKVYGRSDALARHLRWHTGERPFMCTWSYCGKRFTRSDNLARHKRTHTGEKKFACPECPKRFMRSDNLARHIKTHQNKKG
Procedure, shortened: as §1

[27] = molecular target: T12, ZFP SBS#1026 (synthetic)
T12 chain: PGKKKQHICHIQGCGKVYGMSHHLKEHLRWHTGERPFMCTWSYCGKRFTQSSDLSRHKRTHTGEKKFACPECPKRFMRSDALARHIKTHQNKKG
Procedure, shortened: as §1

[28] = molecular target: T13, ZFP SBS#1033 (synthetic)
T13 chain: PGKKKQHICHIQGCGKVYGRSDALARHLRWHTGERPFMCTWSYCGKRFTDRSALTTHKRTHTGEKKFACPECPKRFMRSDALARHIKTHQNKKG
Procedure, shortened: as §1

[29] = molecular target: T14, ZFP SBS#1034 (synthetic)
T14 chain: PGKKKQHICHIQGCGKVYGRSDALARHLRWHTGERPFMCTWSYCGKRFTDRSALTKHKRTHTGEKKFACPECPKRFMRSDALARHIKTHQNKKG
Procedure, shortened: as §1

[30] = molecular target: T15, ZFP SBS#1035 (synthetic)
T15 chain: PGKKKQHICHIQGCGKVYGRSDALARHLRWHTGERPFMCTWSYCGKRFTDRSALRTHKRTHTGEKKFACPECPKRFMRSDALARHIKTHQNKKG
Procedure, shortened: as §1

[31] = molecular target: ZFP SBS#258 (synthetic)
Procedure, shortened: as §1

[32] = molecular target: T16, ZFP SBS#450 (synthetic)
T16 chain: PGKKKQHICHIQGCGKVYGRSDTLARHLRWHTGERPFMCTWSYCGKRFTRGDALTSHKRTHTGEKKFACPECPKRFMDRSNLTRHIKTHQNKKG
Procedure, shortened: as §1

[33] = molecular target: ZFP SBS#1038 (synthetic)
Procedure, shortened: as §1

[34] = molecular target: ZFP SBS#1037 (synthetic)
Procedure, shortened: as §1

Sequence of ZFP SBS#258 (synthetic) (chain, as listed by the source): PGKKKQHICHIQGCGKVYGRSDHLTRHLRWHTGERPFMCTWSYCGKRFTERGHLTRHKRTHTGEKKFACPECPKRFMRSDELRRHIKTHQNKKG
Sequence of ZFP SBS#964 (synthetic) (chain, as listed by the source): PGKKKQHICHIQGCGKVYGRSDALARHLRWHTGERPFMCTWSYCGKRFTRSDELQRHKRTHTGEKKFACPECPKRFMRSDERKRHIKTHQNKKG
Sequence of ZFP SBS#1032 (synthetic) (chain, as listed by the source): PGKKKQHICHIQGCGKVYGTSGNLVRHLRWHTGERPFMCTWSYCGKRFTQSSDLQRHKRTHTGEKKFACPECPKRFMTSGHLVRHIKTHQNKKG
Sequence of ZFP SBS#986 (synthetic) (chain, as listed by the source): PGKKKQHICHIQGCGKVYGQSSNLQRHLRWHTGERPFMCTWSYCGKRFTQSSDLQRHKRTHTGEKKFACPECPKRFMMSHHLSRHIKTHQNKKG
Sequence of ZFP SBS#1010 (synthetic) (chain, as listed by the source): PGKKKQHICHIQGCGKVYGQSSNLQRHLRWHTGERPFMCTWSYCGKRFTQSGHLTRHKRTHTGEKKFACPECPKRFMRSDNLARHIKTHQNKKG
Sequence of ZFP SBS#1018 (synthetic) (chain, as listed by the source): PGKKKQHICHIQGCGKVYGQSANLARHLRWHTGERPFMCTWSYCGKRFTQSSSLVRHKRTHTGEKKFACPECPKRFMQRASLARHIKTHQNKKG
Sequence of ZFP SBS#1019 (synthetic) (chain, as listed by the source): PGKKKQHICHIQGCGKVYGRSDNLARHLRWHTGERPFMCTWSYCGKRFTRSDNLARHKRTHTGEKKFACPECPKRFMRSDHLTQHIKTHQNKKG
Sequence of ZFP SBS#988 (synthetic) (chain, as listed by the source): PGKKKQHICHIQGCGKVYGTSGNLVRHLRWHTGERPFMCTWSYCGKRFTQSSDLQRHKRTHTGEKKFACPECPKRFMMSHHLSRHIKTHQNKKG
Sequence of ZFP SBS#1025 (synthetic) (chain, as listed by the source): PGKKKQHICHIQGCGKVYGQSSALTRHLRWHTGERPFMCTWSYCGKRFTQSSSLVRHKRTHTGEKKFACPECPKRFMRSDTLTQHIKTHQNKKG
Sequence of ZFP SBS#1015 (synthetic) (chain, as listed by the source): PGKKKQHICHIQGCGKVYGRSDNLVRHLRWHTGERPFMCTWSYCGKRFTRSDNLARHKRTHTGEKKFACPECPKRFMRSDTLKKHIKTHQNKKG
Sequence of ZFP SBS#1007 (synthetic) (chain, as listed by the source): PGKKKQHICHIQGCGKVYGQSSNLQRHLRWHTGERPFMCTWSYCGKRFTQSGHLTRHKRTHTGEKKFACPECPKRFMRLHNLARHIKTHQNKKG
Sequence of ZFP SBS#1037 (synthetic) (chain, as listed by the source): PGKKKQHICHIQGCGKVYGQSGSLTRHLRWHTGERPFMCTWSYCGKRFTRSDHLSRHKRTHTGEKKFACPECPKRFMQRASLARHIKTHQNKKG
Sequence of ZFP SBS#1012 (synthetic) (chain, as listed by the source): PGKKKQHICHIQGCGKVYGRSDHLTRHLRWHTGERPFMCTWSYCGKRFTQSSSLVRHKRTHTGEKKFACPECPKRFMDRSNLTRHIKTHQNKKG
Sequence of ZFP SBS#995 (P08047 other isoform, or with tags, fused parts or gaps): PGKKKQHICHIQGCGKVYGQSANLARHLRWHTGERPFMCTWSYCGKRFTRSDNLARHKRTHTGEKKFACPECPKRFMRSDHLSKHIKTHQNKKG
Sequence of ZFP SBS#1038 (synthetic) (chain, as listed by the source): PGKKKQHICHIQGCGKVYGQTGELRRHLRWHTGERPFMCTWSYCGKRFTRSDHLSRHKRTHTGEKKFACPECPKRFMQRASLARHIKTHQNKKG

B1: GCGGCGGTG (dsDNA)
DNA 1: GCGGCGGTG
DNA 2: CACCGCCGC
Kd [1]: 54 pM | Kd [2]: 41 pM

B2: GGTGCTGAT (dsDNA)
DNA 1: GGTGCTGAT
DNA 2: ATCAGCACC
Kd [3]: 1600 pM | Kd [4]: 150 pM | Kd [5]: 520 pM | Kd [6]: 33600 pM

B3: GGGGAGGAA (dsDNA)
DNA 1: GGGGAGGAA
DNA 2: TTCCTCCCC
Kd [7]: 80 pM | Kd [8]: 80 pM

B4: CAGTTGGTC (dsDNA)
DNA 1: CAGTTGGTC
DNA 2: GACCAACTG
Kd [9]: 90 pM | Kd [10]: 9600 pM | Kd [11]: 11200 pM

B5: GCGGAGGAG (dsDNA)
DNA 1: GCGGAGGAG
DNA 2: CTCCTCCGC
Kd [12]: 28 pM | Kd [13]: 8 pM

B6: GAGAGAGAT (dsDNA)
DNA 1: GAGAGAGAT
DNA 2: ATCTCTCTC
Kd [14]: 167000 pM | Kd [15]: 8200 pM | Kd [16]: 150 pM

B7: GAGATGGAG (dsDNA)
DNA 1: GAGATGGAG
DNA 2: CTCCATCTC
Kd [17]: 400 pM | Kd [18]: 1900 pM

B8: TTGGTGGCG (dsDNA)
DNA 1: TTGGTGGCG
DNA 2: CGCCACCAA
Kd [19]: 30 pM

B9: GACGTAGGG (dsDNA)
DNA 1: GACGTAGGG
DNA 2: CCCTACGTC
Kd [20]: 32 pM | Kd [21]: 10 pM

B10: CTGGATGAC (dsDNA)
DNA 1: CTGGATGAC
DNA 2: GTCATCCAG
Kd [22]: 233 pM

B11: GTAGTAGAA (dsDNA)
DNA 1: GTAGTAGAA
DNA 2: TTCTACTAC
Kd [23]: 7200 pM

B12: AGGGAGGAG (dsDNA)
DNA 1: AGGGAGGAG
DNA 2: CTCCTCCCT
Kd [24]: 22 pM

B13: GAGGAGGTG (dsDNA)
DNA 1: GAGGAGGTG
DNA 2: CACCTCCTC
Kd [25]: 115 pM | Kd [26]: 10 pM

B14: GTGGCTTGT (dsDNA)
DNA 1: GTGGCTTGT
DNA 2: ACAAGCCAC
Kd [27]: 76 pM

B15: GTGTTCGTG (dsDNA)
DNA 1: GTGTTCGTG
DNA 2: CACGAACAC
Kd [28]: 685000 pM | Kd [29]: 14600 pM | Kd [30]: 56000 pM

B16: GCGGGCGGG (dsDNA)
DNA 1: GCGGGCGGG
DNA 2: CCCGCCCGC
Kd [31]: 15000 pM

B17: GACTTGGTGC (dsDNA)
DNA 1: GACTTGGTGC
DNA 2: GCACCAAGTC
Kd [32]: 130000 pM

B18: GTAGGGGCA (dsDNA)
DNA 1: GTAGGGGCA
DNA 2: TGCCCCTAC
Kd [33]: 152 pM | Kd [34]: 50 pM
